Reference: patent publication US20250026813A1 (published 2025)
Changes are numbered by the printed parent chain.

B1: IMPI-063 (antibody, V domains shown)
VH: EVQLVESGGGVVRPGGSLRLSCAASGFTFDDYGMSWVRQAPGKGLEWVSGIYWNGGSTGYADSVKGRFTISRDNAKNSLYLQMNSLRAEDMALYYCARGVGATDYWGQGTLVTVSS
VL: EIVLTQSPGTLSLSSGERATLACRASESVRGSFLAWYQQKPGQAPRLLIYGASRRATGIPDRFSGSGSGTDFTLTISRLEPEDFAVYYCQQYGNSPMCSFGQGTKLEIK
B2: IMPI-005 (antibody, V domains shown)
VH: EVQLVESGGGLIQPGGSLRLSCAASGFTVSSNYMNWVRQAPGKGLEWVSVIYSGGSTYYADSVKGRFTISRDNSKNTLFLQMNSLRAEDSAVYYCARDLGPYGVDVWGQGTTVTVSS
VL: DIQLTQSPSFLSASVGDRVTITCWASQGISSYLAWYQQKPGKAPKLLIYAASTLQSGVPSRFSGSGSGTEFTLTISSLQPEDFATYYCQELNSYPLTFGQGTRLEIK
B3: IMPI-037 (antibody, V domains shown)
VH: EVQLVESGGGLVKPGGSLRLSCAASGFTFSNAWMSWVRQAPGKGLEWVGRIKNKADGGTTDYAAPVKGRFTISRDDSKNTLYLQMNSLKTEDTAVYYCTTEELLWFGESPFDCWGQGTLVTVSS
VL: B2 VL with S30N, A84T, E90Q, L91F, S93D, L96R, Q100P, R103K, L104V
B4: YANG-1109 (antibody, V domains shown)
VH: EVQLVESGGGLIQPGGSLRLSCGVSGLTVSRNYMNWVRQAPGKGLEWVSVIYSGGSTFYADSVKGRFTISRDNSKNTLYLQMISLRAEDSGVYYCAREGFGMDVWGQGTTVTVSS
VL: B2 VL with S31N, A50S, S77N, E81A, F83I, E90L, Y94H, L96C, T97S, R103K
B5: IMPI-047 (antibody, V domains shown)
VH: B2 VH with F79Y, A87T, S90T, G100V, P101A, V104M
VL: B2 VL with L46V, E90L, Y94N, Q100G, R103K, L104V
B6: YANG-1105 (antibody, V domains shown)
VH: B4 VH with L4V, G23A, V24A, L27I, I83N, E88D, S90T, F100Y
VL: B2 VL with A50S, S76N, E90Q, Y94H, L96C, T97S, R103K
B7: YANG-1103 (antibody, V domains shown)
VH: EVQMVESGGGLIQPGGSLRLSCAASGLTVSSNYMSWVRQAPGKGLEWVSVIYSGGSTFYADSVKDRFTISRDNSKNTLYLQMNSLRAEDTAVYYCARENWNYVFDCWGQGTLVTVSS
VL: B2 VL with E90Q, Y94H, L96I, T97I
B8: IMPI-017 (antibody, V domains shown)
VH: B2 VH with S25A, F27L, A40V, F79Y, S90T, P101T, Y102L, V104M
VL: B2 VL with S31T, E90Q, P95L, L96P, R103K, L104V
B9: YANG-1107 (antibody, V domains shown)
VH: B7 VH with P14S, T28S, S49A, T57I
VL: B2 VL with S31T, E90Q, N92S, Y94H, L96I, T97I
B10: IMPI-060 (antibody, V domains shown)
VH: B2 VH with F27V, N35S, Y58F, F79Y, S90T, G100S, P101Y, V104M
VL: B2 VL with R61K, E90Q, L96S, T97S, R103K
B11: IMPI-021 (antibody, V domains shown)
VH: B2 VH with F27V, N35S, Y58F, F79Y, S90T, G100S, P101Y, V104M
VL: B2 VL with R61K, E90Q, L96C, T97S, R103K
B12: IMPI-059 (antibody, V domains shown)
VH: EVQLVESGGGLIQPGGSLRLSCAASGFTVSSIYMSWVRQAPGKGLEWVSIIYSRGSTDYADSVKGRFTISRDISKNTLYLQMNSLRAEDTAVYYCARDGTMVRGVHAFDIWGQGTMVTVSS
VL: DIQMTQSPPSLSASIGDRVTITCQASQDISNYLNWYQQKPGKAPKLLIYDASNLETGVPSRFSGSGSGTDFTLTISNLQPEDIVTYYCQQYDNLPSSFGQGTKLEIK
B13: IMPI-006 (antibody, V domains shown)
VH: QLQLQESGPGLVKPSETLSLTCTVSGGSISNSNYYWGWIRQPPGKGLEWIGSIYYSGRTYYNPSLKSRVTISVDTSKNQFSLKLSSVTAADTAVYYCARMGLLWFGEFYGMDVWGQGTTVTVSS
VL: DIQMTQSPSSLSASVGDRVTITCRASQGISSWLAWYQQKPEKAPKSLIYDASSLQRGVPSRFSGSGSGTDFTLTISSLQPEDFASYYCQQYNSYPLTFGGGTRVEIK
B14: IMPI-055 (antibody, V domains shown)
VH: QVQLVQSGAEVKKPGASVKVSCKASGYTFTSYDINWVRQATGQGLEWMGWMNPNSGNTGYAQKFQGRVTMTRDTSINTAYMELSSLRSEDTAVYFCARGGRYCSDVTCYSGEPFDYWGQGTLVTVSS
VL: EIMLTQSPDFQSVTPKEKVTITCRASQSIGSSLHWYQQKPDQSPKLLIKFASQSISGVPSRFSGSGSGTDFTLTINSLEAEDAAAYYCHQSSSLPHTFGPGTKVEIK
B15: YANG-1106 (antibody, V domains shown)
VH: EVQLVESGGGLIQPGGSLRLSCAASEFIVSRNYMSWVRQAPGKGLEWVSVIYSGGSTFYADSVRGRFTISRDNSKNTLYLQMNSLRAEDTAVYYCARDYGDQYFDYWGQGTLVTVSS
VL: EMVMTQSPATLSVSPGEKATLSCRASQTVSTNLAWYQQKPGQSPRLLIYGASTRATGIPARFSGSGSGTEFTLTISSLQSEDFAIYYCQQYVDWPRTFGQGTTVEIK
B16: YANG-1110 (antibody, V domains shown)
VH: QVQLAESGGGVVQPGRSLRLSCVVSGFTFSNYGMHWVRQAPGKGLEWVVFISNDGSNEDFVDSVKGRFTISRDNSKNTLYLQMNSLRAEDTAVYYCAKGGYFYGSGNYYYYYGMDVWGQGTTVTVSS
VL: QPVLTQSSSASASLGSSVKLTCTLSSVHSNHIIAWHQQQPGKAPRYLMKLEGSGRYSKGSGVPDRFSGSSSEADRYLTISNLQSEDEADYYCETWDNNTYVFGSGTKVTVL
B17: IMPI-032 (antibody, V domains shown)
VH: QVQLQESGPGLVKPSGTLSLTCAVSGGSISSNKWWSWVRQPPGKGLEWIGEIDHSGSTMYNPSLKSRVTISVDKSKNQFSLKLNSVTAADTAVYYCTGEGYNWNYWGQGTRVTVSS
VL: DVVMTQSPLSLPVTLGQTASISCRSSQSLLYTDGNTYLSWFQQRPGQSPRRLIYKVSKWESGVPDRFSGSGSGTDFTLKISRVEAEDVGIYYCMQGTHWPLTFGGGTKVEIK
B18: YANG-1108 (antibody, V domains shown)
VH: QVQLVESGGGVVHPGRSLRLSCVVSGFTFSGYGMYWVRQAPGKGLEWVAVISKDGSDKYYADSVKGRFTISRDNSKNTLNLQMNSLRAEDTAVFYCAKERTFQGSGSYYNNYFYYGMDVWGQGTTVTVSS
VL: AIQLTQSPSSLSASVGDRVTITCRASQGISSALAWYQQKPGKAPNLLIYDASSLESGVPSRFSGSGFGTDFTLTINSLQPEDFASYYCQQFKSYPLTFGGGTKVEIK
B19: IMPI-027 (antibody, V domains shown)
VH: QVQLQESGPGLVKPSQTLSLTCTVSGGSISSYGYYWNWIRQHPGKGLEWIGYIYYSGSTYYNPSLKSRVTISVDTSKNQLSLRLNSVSAADTAVYYCARDFGGNSNYFDYWGQGTLVTVSS
VL: B18 VL with A25T, N45K, F67S, N76S, S85T, K92N
B20: IMPI-022 (antibody, V domains shown)
VH: EVQLVESGGGLVQPGRSLRLSCAASGFTFDDYAMHWVRQAPGKGLEWVSGITWNSGSIGYADSVKGRFTISRDNAKNSLYLHMNSLRVEDTALYYCAKDLQGDYYYYGVDVWGQGTTVTVSS
VL: B18 VL with N45K, I48L, E55V, G66R, F67S, N76S, S85T, K92I, K103R
B21: IMPI-033 (antibody, V domains shown)
VH: B19 VH with N37S, I71M
VL: B18 VL with F67S, N76S, S85T, K92N, Y94S
B22: IMPI-054 (antibody, V domains shown)
VH: EVQLVESGGGLIQPGGSLRLSCAASGLTVSSNYMSWVRQAPGKGLEWVSIIYSGGSTYYADSVKGRFTISRDNSKNTLYLQMNSLRAEDTAVYYCARLGGYYYYGMDVWGQGTTVTVSS
VL: DIQMTQSPSSLSASVGERVTITCQASQDIRNYLNWYQKKPGKAPKLLIYDSSNLETGVPSRFSGSGSGTDFTFTISSLQPEDIATYYCQQYDNLPITFGQGTRLEIK
B23: IMPI-042 (antibody, V domains shown)
VH: B22 VH
VL: B22 VL with S65G
B24: YANG-1102 (antibody, V domains shown)
VH: QVQLQESGPGLVKPSGTLSLTCAVSGGSISTTNWWSWVRQSPGRGLEWIGEIFHIGYTNYNPSLKSRVTISVDKSKNQFSLKLNSVTVADTAVYYCARRVVMDTAMAHFDCWGQGTLVTVSS
VL: QSVLTQPPSVSGAPGQRVTISCTGSSSNIGAGYDVHWYQHLPGTAPKLLIYININRPSGVPDRFSGSKSGTSASLVIAGLQAEDGADYYCQSYDSSLSGWVFGGGTRLTVL
B25: YANG-1101 (antibody, V domains shown)
VH: QLQLQESGPGLVKPSETLSLTCTVSGGSISSSSYYWGWIRQPPGKGLEWIGSIYYSGSIYYNPSLKSRVTISVDTSKNQFSLKLSSVTAADTAVYYCASWFGEFLKADAFDIWGQGTMVTVSS
VL: QSALTQPASVSGSPGQSITISCTGTSSDVGGYSYVSWYQQHPGKAPKLMIYDVSKRPSGVSNRFSGSKSGNTASLTISGLQAEDEADYYCCSYAGGSTFVVFGGGTKLTVL

How the values were obtained:
[1] = target: T1, S2 subunit of the SARS-CoV-2 spike protein (Sino Biological 40590-V08B), His tag (SARS-CoV-2, UniProt P0DTC2 686-1213)
T1 construct: domain: S2 subunit

[2] = target: T2, RBD domain of the spike protein of SARS-CoV-2 virus (Acro Biosystems SPD-C52H3) (SARS-CoV-2, UniProt P0DTC2 319-537); test: Affinity (SPR) by Octet; antigen not named, taken from the epitope column
T2 construct: domain: RBD domain

Binder | HTRF deltaF [1] | Kd [2]
B1 | 411 deltaF | –
B2 | -1.8 deltaF | –
B3 | -2 deltaF | –
B4 | – | < 0.1 nM
B5 | 4.3 deltaF | –
B6 | – | < 0.1 nM
B7 | – | < 0.1 nM
B8 | 13 deltaF | –
B9 | – | < 0.1 nM
B10 | 6 deltaF | –
B11 | -0.3 deltaF | –
B12 | -2.7 deltaF | –
B13 | 40.7 deltaF | –
B14 | -10.3 deltaF | –
B15 | – | < 0.1 nM
B16 | – | < 0.1 nM
B17 | -8 deltaF | –
B18 | – | < 0.1 nM
B19 | 7.5 deltaF | –
B20 | -9.7 deltaF | –
B21 | -3.6 deltaF | –
B22 | 15.8 deltaF | –
B23 | 1.6 deltaF | –
B24 | – | < 0.1 nM
B25 | – | < 0.1 nM
